# Measurements taken from article PMC2276626, “Structure-Based Inhibitors Exhibit Differential Activities against Helicobacter pylori and Escherichia coli Undecaprenyl Pyrophosphate Synthases” (Journal of Biomedicine and Biotechnology, 2008).
# T1: Undecaprenyl pyrophosphate synthase (UPPS) (Helicobacter pylori, UniProt P55984)
# T1 sequence (P55984 1-234): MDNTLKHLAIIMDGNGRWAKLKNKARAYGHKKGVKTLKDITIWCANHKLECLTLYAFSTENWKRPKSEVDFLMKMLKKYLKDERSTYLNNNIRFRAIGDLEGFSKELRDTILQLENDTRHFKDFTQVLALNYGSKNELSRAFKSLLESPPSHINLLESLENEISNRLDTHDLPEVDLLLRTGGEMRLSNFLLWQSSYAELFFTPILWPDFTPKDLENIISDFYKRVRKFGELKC
# Experiments:
# [1] = test system: C=C(C)CCO[P@@](=O)(O)OP(=O)(O)O; test: steady-state enzyme kinetics (Km); type: biochemical, Helicobacter pylori; details: Mg2+
# [2] = test system: CC(C)=CCC/C(C)=C/CC/C(C)=C/CO[P@@](=O)(O)OP(=O)(O)O; test: steady-state enzyme kinetics (Km); type: biochemical, Helicobacter pylori; details: Mg2+
# [3] = target: T1, Undecaprenyl pyrophosphate synthase (UPPS); test: enzyme activity dose-response with […] UPPS; type: biochemical
# [4] = target: Undecaprenyl pyrophosphate synthase (UPPS) (Helicobacter pylori, UniProt P55984, C234A)
# [5] = target: T2, Undecaprenyl pyrophosphate synthase (UPPS) (Escherichia coli, UniProt P60472); test: enzyme activity dose-response with […] UPPS; type: biochemical
# T2 construct: gene ispU
# [6] = substrate: C=C(C)CCO[P@@](=O)(O)OP(=O)(O)O; test: steady-state enzyme kinetics (Km); type: biochemical, Helicobacter pylori; details: Mg2+; remark: listed apart in the source
# [7] = substrate: CC(C)=CCC/C(C)=C/CC/C(C)=C/CO[P@@](=O)(O)OP(=O)(O)O; test: steady-state enzyme kinetics (Km); type: biochemical, Helicobacter pylori; details: Mg2+; remark: listed apart in the source
# T2 sequence (P60472 whole entry): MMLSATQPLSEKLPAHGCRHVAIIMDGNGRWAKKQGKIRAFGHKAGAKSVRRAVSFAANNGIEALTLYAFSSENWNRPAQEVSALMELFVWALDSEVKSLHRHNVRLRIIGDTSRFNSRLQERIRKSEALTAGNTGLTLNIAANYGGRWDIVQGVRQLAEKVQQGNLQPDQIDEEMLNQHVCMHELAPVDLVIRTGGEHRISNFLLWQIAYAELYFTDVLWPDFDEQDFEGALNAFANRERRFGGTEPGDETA
molecule,measurement,setting,value
Undecaprenyl pyrophosphate synthase (UPPS) (Helicobacter pylori 26695; C234A),Km,[1],9.6 ± 0.2 µM
same,Km,[2],0.15 ± 0.04 µM
NS(=O)(=O)c1cccc(-c2ccc(C3Nc4ccccc4-c4nc5ccccc5n43)o2)c1 (centres unmarked) [HTS04781],IC50,[3],362 µM
O=P(O)(O)OP(=O)(O)O [pyrophosphate],"X-ray crystal structure at 2.5 Å (crystals soaked with FsPP, IPP and MgCl2); only",[4],only the pyrophosphate of FsPP was found in the complex structure
O=S(=O)(CS(=O)(=O)Nc1nc2ccc(Cl)cc2s1)Nc1nc2ccc(Cl)cc2s1 [BTB06061],IC50,[3],350 µM
same,IC50,[5],71 µM
Undecaprenyl pyrophosphate synthase (UPPS) (Helicobacter pylori 26695) (protein) MDNTLKHLAIIMDGNGRWAKLKNKARAYGHKKGVKTLKDITIWCANHKLECLTLYAFSTENWKRPKSEVDFLMKMLKKYLKDERSTYLNNNIRFRAIGDLEGFSKELRDTILQLENDTRHFKDFTQVLALNYGSKNELSRAFKSLLESPPSHINLLESLENEISNRLDTHDLPEVDLLLRTGGEMRLSNFLLWQSSYAELFFTPILWPDFTPKDLENIISDFYKRVRKFGELKC,Km,[6],9.2 ± 0.1 µM
same,Km,[7],0.11 ± 0.02 µM
